First the molecules themselves.
T1: TsdA (thiosulfate dehydrogenase) (Allochromatium vinosum, UniProt D3RVD4)
T1 construct: native signal peptide (removed on export), C-terminal strep(II) tag kept; E. coli Lemo56(DE3) with pEC86; two c-type hemes; 28,228 Da by ESI-MS; 234 residues modeled
T1 sequence (D3RVD4 28-270): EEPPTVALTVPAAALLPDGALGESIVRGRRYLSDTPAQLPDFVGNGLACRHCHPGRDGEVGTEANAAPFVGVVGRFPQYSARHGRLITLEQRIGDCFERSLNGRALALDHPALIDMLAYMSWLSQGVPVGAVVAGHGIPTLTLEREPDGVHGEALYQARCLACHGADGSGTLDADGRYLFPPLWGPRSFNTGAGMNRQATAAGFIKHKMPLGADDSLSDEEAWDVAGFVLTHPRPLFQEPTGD

B1: TsdA (thiosulfate dehydrogenase) (Allochromatium vinosum DSM 180) (protein)
chain: T1 sequence (D3RVD4 28-270)
notes: native signal peptide (removed on export), C-terminal strep(II) tag kept; E. coli Lemo56(DE3) with pEC86; two c-type hemes; 28,228 Da by ESI-MS; 234 residues modeled
B2: TsdA (thiosulfate dehydrogenase) (Allochromatium vinosum DSM 180; R109A) (protein)
chain: T1 sequence (D3RVD4 28-270) with R82A
notes: as for B1
B3: TsdA (thiosulfate dehydrogenase) (Allochromatium vinosum DSM 180; R224A) (protein)
chain: T1 sequence (D3RVD4 28-270) with R197A
notes: as for B1
B4: TsdA (thiosulfate dehydrogenase) (Allochromatium vinosum DSM 180; R119A) (protein)
chain: T1 sequence (D3RVD4 28-270) with R92A
notes: as for B1
B5: TsdA (thiosulfate dehydrogenase) (Allochromatium vinosum DSM 180; S127A) (protein)
chain: T1 sequence (D3RVD4 28-270) with S100A
notes: as for B1

Residue numbers refer to the chain shown, from its start. Numbers in names are those of the source.

In one series the target is T1, TsdA (thiosulfate dehydrogenase). The series is described as follows: ESI-MS of intact protein. Type of series: biochemical. To be noted: covalent; S-thiosulfonation of Cys123, +112 Da; pH 4.25 and pH 8.0; no electron donor.
With `O=S(=O)(O)SSS(=O)(=O)O` [tetrathionate], the “ESI-MS of intact protein” value is “Tetrathionate treatment under both conditions gave the 112-Da increase in mass”.

Substrate in a further series: O=S(O)(O)=S
As to the kind of experiment: purified protein. In kind it is biochemical, Allochromatium vinosum. To be noted: 1 mM potassium ferricyanide as electron acceptor, 100 mM ammonium acetate pH 4.25, 24 °C.
Regarding B1, the Km (as a rule, the concentration of substrate that gives half-maximal velocity) is reported as 2.2 ± 0.3 mM; the kcat – broadly, the number of substrate molecules converted per active site and unit of time at saturation – amounted to 4280 ± 150 s⁻¹. On to B2, for which the Km was determined as 5.8 ± 0.8 mM and the kcat came to 3210 ± 310 s⁻¹. As for B3, the Km worked out at 2.5 ± 0.8 mM and the kcat is 3670 ± 460 s⁻¹. On to B4, for which the Km came out at 47 ± 7 mM and the kcat worked out at 640 ± 40 s⁻¹. On to B5, for which the Km turned out to be 10.7 ± 6.2 mM and the turnover number (kcat) was determined as 3060 ± 920 s⁻¹.

For the origin of these results see paper PMC4423706, “Mechanism of Thiosulfate Oxidation in the SoxA Family of Cysteine-ligated Cytochromes” (The Journal of Biological Chemistry, 2015).
